The source of these data is PMC9490040, “Mechanistic insight into the RNA-stimulated ATPase activity of tick-borne encephalitis virus helicase”.

This data set concerns the target NS3H (NS3 helicase domain) WT (Tick-borne encephalitis virus strain …, UniProt Q01299 1662-2110). Description: fluorescence anisotropy; 1 mM Mg2+; no nucleotide; apparent KD; 20 mM Tris-HCl pH 7.5, 100 mM NaCl, 1 mM MgCl2, 7.5% glycerol; 45 min at 30 C; […]. The conditions noted are these: protein: recombinant; tags: N-terminal 10xHis (pET-19b); label: 5' 6-FAM; single strand. A general note: In fluorescence polarisation assays a small probe gives low polarisation when free and higher when bound to something large.

Sequence of NS3H (NS3 helicase domain) WT (Q01299 1662-2110): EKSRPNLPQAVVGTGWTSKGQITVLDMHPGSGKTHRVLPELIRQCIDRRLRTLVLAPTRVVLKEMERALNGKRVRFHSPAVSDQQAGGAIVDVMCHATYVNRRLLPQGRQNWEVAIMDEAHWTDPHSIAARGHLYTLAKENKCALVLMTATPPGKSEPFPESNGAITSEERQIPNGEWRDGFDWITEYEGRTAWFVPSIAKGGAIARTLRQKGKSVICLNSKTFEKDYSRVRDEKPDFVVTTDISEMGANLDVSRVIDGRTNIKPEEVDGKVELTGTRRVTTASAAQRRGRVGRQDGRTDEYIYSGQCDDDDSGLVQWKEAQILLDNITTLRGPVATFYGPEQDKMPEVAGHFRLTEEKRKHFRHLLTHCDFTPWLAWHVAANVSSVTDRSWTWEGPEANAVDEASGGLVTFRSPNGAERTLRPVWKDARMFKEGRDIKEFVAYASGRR

In the case of AGAUUUUCUUGC (ssRNA) [6-FAM-ssRNA12], the Kd came out at 49.7 ± 9.3 nM.
